Data as given in patent US12356911B2, “Group of UDP-glycosyltransferase for catalyzing carbohydrate chain elongation and application thereof” (GSYNBIOT (SHANGHAI) CO., LTD, priority 2017, dated 2025).

Assays:
Assay type in all cases: biochemical
[1] = In vitro transglycosylation at C-3, Rh2 as glycosyl acceptor, UDP-glucose as donor; conditions: crude enzyme (E. coli lysate supernatant); TLC, FIG. 13, FIG. 15
Excerpt: (§1) Cell lysate of recombinant E. coli with empty vector pET28a was used as a control.

[2] = In vitro transglycosylation at C-20, CK as glycosyl acceptor, UDP-glucose as donor; conditions: crude enzyme (E. coli lysate supernatant); TLC/HPLC, FIG. 2, 3, 12, 16
Excerpt: as §1
As shown in FIG. 16: Protopanaxadiol Ginsenoside CK is used as a glycosyl acceptor, and UDP-glucose is used as a glycosyl donor.

[3] = In vitro transglycosylation at C-20, Rd as glycosyl acceptor, UDP-glucose as donor; conditions: crude enzyme (E. coli lysate supernatant); TLC/HPLC, FIG. 2, 3, 11
Excerpt: as §1

Molecule	product formation from Rh2 and UDP-glucose (Rg3) [1]	product formation from CK and UDP-glucose (Gypenoside LXXV) [2]	product formation from Rd and UDP-glucose (Rb1) [3]
GT29-45: Ginseng UDP-glycosyltransferase, 448 amino acids, SEQ ID NO.: 98 (protein, Panax ginseng) MDIEKGRISIVMLPFLAHGHISPFFELAKHLSKRNCNIFLCSTPINLSSIKNRVSDKDSSASIKLVELHLPSSPDLPPHYHTTNGLPSHLMVPLRNAFETAAPTFSEILKTLNPDLLIYDFNPSWAPEIASSHNIPAVYFLTSAAATSSMGLHAFKNSGEKYPFPDFYDNSNITPEPPSADKMKLFHDFVACFKRSCDIILIKSFRELEGKYIDFLSTLSKKTLVPVGPLVQDPMGHDEDPKTGHLINWLDKRAESTVVFVCFGSEYFPSNEELEELAIGLEISMVSFILAVRFPEGEKKGILPEGFVQRVGDRGLVVEGWAPQARILGHSSTGGFVSHCGWSSIMESVKFGVPVIAMARHLDQPLNAKLAAEVGVGMEVMRDENGKYKREAIAEVIRKVVMEKNGEVMRRKARELSEKMKVKGEQEIGRAVEELVQICKKKKQHAQY	can all catalyze the extension of a glucosyl at the C-3 glycosyl of Rh2 to generate Rg3	can catalyze the C-20 glycosyl of CK to extend a glucosyl to produce Gypenoside LXXV	
GT29-46: Ginseng UDP-glycosyltransferase, 442 amino acids, SEQ ID NO.: 100 (protein, primer) MDNQEGRISIALLPFLAHGHISPFFELAKQLAKRNCNVFLCSTPINLSSIKNKDSSASIKLVELHLPSSPDLPPHYHTTNGLPSHLMVPLINAFETAGPTFSEILKTLNPDLLIYDFNPSWAPEIASSHNIPAVYFLTTAAASSSIGLHAFKNPGEKYPFPDFYDNSNNTPEPPSADNMKLLHDFIACFERSCDIILIKSFIELEGKYIDLLSTLSDKTLVPVGPLVQDPMGHNEDPKTEQIINWLDKRAESTVVFVYFGSEYFLSNEELEEVAIGLEISMVNFIWAVRLIEGEKKGVLPEGFVQRVGDRGLVVEGWAPQARILGHSSTGGFVSHCGWSSIAESMKFGVPVIAMARHLDQPLNGKLAAEVGVGMEVVRDENGKYKREGIAEVIRKVVVEKSGEVMRRKARELSEKMKEKGEEEIDRAVEELVQICKKKKDAQ	can all catalyze the extension of a glucosyl at the C-3 glycosyl of Rh2 to generate Rg3	can catalyze the C-20 glycosyl of CK to extend a glucosyl to produce Gypenoside LXXV	
PNUGT29-14: Panax notoginseng glycosyltransferase, 447 amino acids, SEQ ID NO: 57 (protein, Panax notoginseng) MYIEKGRISIVMLPFLAHGHISPFFELAKHLSKRNCNIFLCSTPINLSSIKNRVSDKDSSASIKLVELHLPSSPDLPPQYHTTNGLPSHLMVPLKNAFETVGPTFSEILKTLDPDLLIYDFNPSWAPEIALSHNIPAVYFLTSAAATSSVALRALKNPGEKYPFPDFYDNSNITPEPPSADKMKLFHDFVACFKRSCDIILIKSFRELEGKYIDLLSTLSKKTLVPVGPLVQDPLGHDEDPKTGHLINWLDKRAESTVVFVCFGSEYFPSNEELEEVAIGLEISMVNFILAVRFLEGEKKGVLPEGFVQRVGDRGLVVEGWAPQARILGHSSTGGFVSHCGWSSIMESVKFGVPVIAMARHLDQPLNAKLAAEVGVGMEVVRDENGKYKREAIAEVIRKVVMEKNGEVIRRKARELSEKMKETGEQEIGRAVEELVQICKMKKDAQY	can catalyze the extension of a glucosyl at the C-3 glycosyl of Rh2 to generate Rg3	can catalyze the extension of a glucosyl at the C-20 glycosyl to generate Gypenoside LXXV	can catalyze the extension of a glucosyl at the C-20 glycosyl of Rd to generate Rb1
PNUGT29-1: Panax notoginseng glycosyltransferase, 447 amino acids, SEQ ID NO: 39 (protein, Panax notoginseng) MDIEKGRISIVMLPFLAHGHISPFFELAKHLSKRNCNIFLCSTPINLSSIKSRVSDKDSSASIKLVELHLPSSPDLPPQYHTTNGLPSHLMVPLKNAFETVGPTFSEILKTLDPDLLIYDFNPSWAPEIALSHNIPAVYFLTSAAATSSVALRALKNPGEKYPFPDFYDNSNITPEPPSADKMKLFHDFVACFKRSCDIILIKSFRELEGKYIDLLSTLSKKTLVPVGPLVQDPLGHDEDPKTGHLINWLDKRAESTVVFVCFGSEYFPSNEELEEVAIGLEISMVNFILAVRFLEGEKKGVLPEGFVQRVGDRGLVVEGWAPQARILGHSSTGGFVSHCGWSSIMESVKFGVPVIAMARHLDQPLNAKLAAEVGVGMEVVRDENGKYTREAIAEVIRKVVMEKNGEVIRRKARELSDKMKEKGEQEIGRAVEELVQICKMKKDAQY	can catalyze the extension of a glucosyl at the C-3 glycosyl of Rh2 to generate Rg3	can catalyze the extension of a glucosyl at the C-20 glycosyl to generate Gypenoside LXXV	can catalyze the extension of a glucosyl at the C-20 glycosyl of Rd to generate Rb1
PNUGT29-4: Panax notoginseng glycosyltransferase, 447 amino acids, SEQ ID NO: 45 (protein, Panax notoginseng) MDIEKGRISIVMLPFLAHGHISPFFELAKHLSKRNCNIFLCSTPINLSSIKNRVSDKDSSASIKLVELHLPSSPDLPPQYHTTNGLPSHLMVPLKNAFETVGPTFSEILKTLDPDLLIYDFNPSWAPEIALSHNIPAVYFLTSAAATSSVALRALKNPGEKYPFPDFYDNSNITPEPPSADKMKLFHDFVACFKRSCDIILIKSFRELEGKYIDLLSTLSKKTLVPVGPLVQDPLGHDEDPKTGHLINWLDKRAESTVVFVCFGSEYFPSNEELEEVAIGLEISMVNFILAVRFLEGEKKGVLPEGFVQRVGDRGLVVEGWAPQARILGHSSTGGFVSHCGWSSIMESVKFGVPVIAMARHLDQPLNAKLAAEVGVGMEVVRDENGKYTREAIAEVIRKVVMEKNGEVIRRKARELSDKMKEKGEQEIGRAVEELVQICKMKKDAQY	can catalyze the extension of a glucosyl at the C-3 glycosyl of Rh2 to generate Rg3	can catalyze the extension of a glucosyl at the C-20 glycosyl to generate Gypenoside LXXV	can catalyze the extension of a glucosyl at the C-20 glycosyl of Rd to generate Rb1
PNUGT29-15: Panax notoginseng glycosyltransferase, 447 amino acids, SEQ ID NO: 59 (protein, Panax notoginseng) MDIEKGRISIVMLPFLAHGHISPFFELAKHLSKRNCNIFLCSTPINLSSIKNRVSDKDSSASIKLVELHLPSSPDLPPQYHTTNGLPSHLMVPLKNAFETVGPTFSEILKTLDPDLLIYDFNPSWAPEIALSHNIPAVYFLTSAAATSSVALRALKNPGEKYPFPDFYDNSNITPEPPSADKMKLFHDFVACFKRSCDIILIKSFRELEGKYIDLLSTLSKKTLVPVGPLVQDHLGHDEDPKTGHLINWLDKRAESTVVFVCFGSEYFPSNEELEEVAIGLEISMVNFILAVRFLEGEKKGVLPEGFVQRVGDRGLVVEGWAPQARILGHSSTGGFVSHCGWSSIMESVKFGVPVIAMARHLDQPLNAKLAAEVGVGMEVVRDENGKYTREAIAEVIRKVVMEKNGEVIRRKARELSDKMKEKGEQEIGRAVEELVQICKMKKDAQY	can catalyze the extension of a glucosyl at the C-3 glycosyl of Rh2 to generate Rg3	can catalyze the extension of a glucosyl at the C-20 glycosyl to generate Gypenoside LXXV	can catalyze the extension of a glucosyl at the C-20 glycosyl of Rd to generate Rb1
PNUGT29-3: Panax notoginseng glycosyltransferase, 447 amino acids, SEQ ID NO: 43 (protein) MDIEKGRISIVMLPFLAHGHISPFFELAKHLSKRNCNIFLCSTPINLSSIKNRVSDKDSSASIKLVELHLPSSPDLPPQYHTTNGLPSHLMVPLKNAFETVGPTFSEILKTLDPDLLIYDFNPSWAPEIALSHNIPAVYFLTSAAATSSVALRALKNPGEKYPFPDFYDNSNITPEPPSADKMKLFHDFVACFKRSCDIILIKSFRELEGKYIDLLSTLSKKTLVPVGPLVQDPLGHDEDPKTGHLINWLDKRAESTVVFVCFGSEYFPSNEELEEVAIGLEISMVNFILAVRFLEGEKKGVLPEGFVQRVGDRGLVVEGWAPQARILGHSSTGGFVSHCGWSSIMESVKFGVPVIAMARHLDQPLNAKLAAEVGVGMEVVRDENGKYKREAIAEVIRKVVMEKNGEVIRRKARELSEKMKETGEQEIGRAVEELVQICKMKKDAQY	can catalyze the extension of a glucosyl at the C-3 glycosyl of Rh2 to generate Rg3	can catalyze the extension of a glucosyl at the C-20 glycosyl to generate Gypenoside LXXV	can catalyze the extension of a glucosyl at the C-20 glycosyl of Rd to generate Rb1
PNUGT29-2: Panax notoginseng glycosyltransferase, 442 amino acids, SEQ ID NO: 41 (protein, Panax notoginseng) MDNQKGRISIALLPFLAHGHISPFFELAKQLAKRNCNVFLCSTPINLSSIKNKDSSASVKLVELHLPSSPDLPPHYHTTNGLPSHLMVPLRNAFETVGPTFSEILKTLNPDLLIYDFNPSWAPEIASSHNIPAVYFLTTAAASSSIGLHAFKNPGEKYPFPDFYDNSNITPEPPSADNMKLLHDFIACFERSCDIILIKSFRELEGKYIDLLSTLSDKTLVPVGPLVQDPMGHNEDPKTEQIINWLDKRAESTVVFVCFGSEYFLSNEELEEVAIGLEISMVNFIWAVRLIEGEKKGVLPEGFVQRVGDRGLVVEGWAPQARILGHSSTGGFVSHCGWSSIAESMRFGVPVIAMARHLDQPLNAKLAAEVGVGMEVVRDDNGKYKREGIAEVIRKVVVEKSGEVIRRKARELSEKMKEKGEQEIDRAVEELVQICKKKKDAQ	can catalyze the extension of a glucosyl at the C-3 glycosyl of Rh2 to generate Rg3	can catalyze the extension of a glucosyl at the C-20 glycosyl to generate Gypenoside LXXV	can catalyze the extension of a glucosyl at the C-20 glycosyl of Rd to generate Rb1
